Source: patent US20040058403A1

Target: peptide(18mer)-BodipyFL

In the case of “NlpA-[Dig scFv] (26-10 anti-digoxin/digoxigenin scFv fused to the NlpA anchor) (from UniProt P04846 24-29)”, the M (mean fluorescence, FL1-Height) is reported as 6.78.
